Laboratory results published in patent publication US20050282190, “Modular design and construction of nucleic acid molecules, aptamer-derived nucleic acid constructs, RNA scaffolds, their expression, and methods of use” (published 2005).

Key:
HSF (heat shock factor) = target: T1, HSF (heat shock factor) (UniProt P22813 P22813:1-691); test: EMSA; affinity measured, value only in figure; settings: tags: His; three-way junction
T1 sequence: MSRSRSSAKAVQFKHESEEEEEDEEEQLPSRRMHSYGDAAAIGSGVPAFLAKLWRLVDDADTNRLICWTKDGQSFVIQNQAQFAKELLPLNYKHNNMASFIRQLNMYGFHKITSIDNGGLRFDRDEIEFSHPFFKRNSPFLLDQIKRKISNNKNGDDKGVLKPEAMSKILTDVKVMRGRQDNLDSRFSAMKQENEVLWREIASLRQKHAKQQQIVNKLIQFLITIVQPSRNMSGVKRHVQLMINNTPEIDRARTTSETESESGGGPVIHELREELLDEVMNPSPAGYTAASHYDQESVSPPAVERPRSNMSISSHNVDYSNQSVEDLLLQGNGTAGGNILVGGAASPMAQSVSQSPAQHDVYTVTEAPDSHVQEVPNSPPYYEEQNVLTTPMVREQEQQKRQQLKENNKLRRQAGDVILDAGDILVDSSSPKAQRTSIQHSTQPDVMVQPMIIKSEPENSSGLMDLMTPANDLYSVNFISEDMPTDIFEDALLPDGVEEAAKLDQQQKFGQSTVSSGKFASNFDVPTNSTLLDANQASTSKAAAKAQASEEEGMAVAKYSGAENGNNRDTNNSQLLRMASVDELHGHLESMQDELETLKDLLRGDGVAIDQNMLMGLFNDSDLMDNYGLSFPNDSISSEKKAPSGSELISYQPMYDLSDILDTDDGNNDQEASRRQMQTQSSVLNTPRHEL

Streptavidin [1] = target: T2, Streptavidin (UniProt P22629 P22629:25-183); test: T-S secondary aptabody detected by HRP-streptavidin; settings: tags: ImmunoPure streptavidin, Pierce; HRP or Texas Red conjugates in immunoassays; chain copies: 4; two fused three-way junctions, two TAR-Mal and two S1 modules
Procedure: (§1) Western blot analysis for antibodies was performed according to a standard protocol (Harlow et al., Using Antibodies: A Laboratory Manual. Cold Spring Harbor, Cold Spring Harbor Laboratory Press (1999), which is hereby incorporated by reference in its entirety). For the aptabodies, proteins were separated on 8% SDS-PAGE and transferred to nitrocellulose membrane according to the aforementioned standard protocol. Subsequent steps were also identical except the following substitutions. The RNA aptabody B-S (FIG. 5A) (10 μg/ml) and horseradish peroxidase conjugated streptavidin (1 μg/ml) were used to replace the primary and secondary antibodies. […]
(§2) First, a Western blot analysis was conducted with the aptabodies and a monoclonal antibody against B52. The sample to be analyzed contained a full-length B52 produced from a baculovirus expression system, a His-tagged B52 deletion construct that contained the two RNA recognition motifs recognized by the aptamers and the monoclonal antibody By32 (Champlin et al., “Characterization of a Drosophila Protein Associated with Boundaries of Transcriptionally Active Chromatin,” Genes and Development 5:1611-1621 (1991), which is hereby incorporated by reference in its entirety), and a His-tagged Drosophila heat shock factor as control. […]

[2] = target: T3, B52 RRMs (two RNA recognition motifs) (UniProt P26686 P26686:4-188); test: Western blot with B-R then T-S then HRP-streptavidin; settings: tags: His; two fused three-way junctions, two BBS and two R-06 modules
Procedure: as §1, §2

[3] = target: T4, B52 (SR protein), full-length (UniProt P26686 P26686:2-350); test: as above; settings: tags: baculovirus expressed; two fused three-way junctions, two BBS and two R-06 modules
Procedure: as §1, §2

Streptavidin [4] = target: T2, Streptavidin; test: EMSA; reduced S1 retains full activity; settings: tags: ImmunoPure streptavidin, Pierce; HRP or Texas Red conjugates in immunoassays; chain copies: 4
Procedure: All binding assays were performed in 20 μl volume. The binding buffer contains 50 mM Tris-Cl (pH 7.4), 100 mM NaCl, 15 mM MgCl₂, 10% glycerol, and 1 mM DTT. A typical binding assay using labeled RNA contains about 20 fmole of ³²P-labeled RNA probe and different amounts (1-10 pmole, indicated by L and H in FIG. 5B) of protein or non-labled RNA. The reactions were allowed to equilibrate for 15-20 minutes at ambient temperature before being subjected to EMSA.
For BBS-B52 interaction, EMS assay was performed at 4° C. The binding reaction mixtures were set at 4° C. for 5-10 minutes before being loaded onto a 2.5% agarose gel in ¼ TBE buffer. For the streptavidin aptamers and the TAR aptamers, EMSA were performed at ambient temperature with 6% or 12% native polyacrylamide gel run in TG buffer (25 mM Tris base, 200 mM glycine, and 5 mM MgCl₂).

Streptavidin [5] = target: T2, Streptavidin; test: original aptamer used as reference in deletion analysis; settings: tags: ImmunoPure streptavidin, Pierce; HRP or Texas Red conjugates in immunoassays; chain copies: 4
[6] = target: T5, TBP (TATA-binding protein) (UniProt P13393 P13393:1-240); test: filter; settings: three-way junction with asymmetric internal loop and apical loop
T5 sequence: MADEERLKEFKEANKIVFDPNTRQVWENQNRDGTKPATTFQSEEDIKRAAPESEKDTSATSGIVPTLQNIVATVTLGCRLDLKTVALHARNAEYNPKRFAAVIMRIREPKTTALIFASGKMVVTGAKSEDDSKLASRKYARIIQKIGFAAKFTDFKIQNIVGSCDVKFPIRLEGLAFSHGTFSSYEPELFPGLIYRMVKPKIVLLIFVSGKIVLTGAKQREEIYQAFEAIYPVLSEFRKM

[7] = target: T5, TBP (TATA-binding protein); test: filter; AptTBP-101 Kd stated to be similar to that of AptTBP-12 complex; binds DNA-binding surface and competes with TATA-DNA (p252)
[8] = target: T5, TBP (TATA-binding protein); test: reduced form fully retained binding; used to mask DNA-binding surface of TBP
[9] = target: T4, B52 (SR protein), full-length; test: Western blot with HRP-streptavidin; 15 mM MgCl2; settings: tags: baculovirus expressed; two fused three-way junctions, two BBS and two S1 aptamers
Procedure: as §1, §2

Streptavidin [10] = target: T2, Streptavidin; test: streptavidin conjugates as secondary reagent in Western, dot blot and immunofluorescence; settings: tags: ImmunoPure streptavidin, Pierce; HRP or Texas Red conjugates in immunoassays; chain copies: 4; two fused three-way junctions, two BBS and two S1 aptamers
[11] = target: T3, B52 RRMs (two RNA recognition motifs); test: Western blot and dot blot; as low as 1 ng protein detected; settings: tags: His; two fused three-way junctions, two BBS and two S1 aptamers
Procedure: as §1, §2

T2 sequence (P22629 25-183, one chain of several): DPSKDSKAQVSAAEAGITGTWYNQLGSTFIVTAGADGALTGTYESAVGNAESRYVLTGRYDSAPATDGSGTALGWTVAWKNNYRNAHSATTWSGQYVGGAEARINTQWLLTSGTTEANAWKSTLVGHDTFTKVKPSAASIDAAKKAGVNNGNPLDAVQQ
T3 sequence (P26686 other isoform, or with tags, fused parts or gaps): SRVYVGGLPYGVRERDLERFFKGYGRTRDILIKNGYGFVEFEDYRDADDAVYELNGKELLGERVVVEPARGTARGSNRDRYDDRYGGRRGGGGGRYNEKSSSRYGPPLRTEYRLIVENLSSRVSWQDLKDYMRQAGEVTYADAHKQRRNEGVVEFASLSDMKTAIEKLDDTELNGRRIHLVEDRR
T4 sequence (P26686 other isoform, or with tags, fused parts or gaps): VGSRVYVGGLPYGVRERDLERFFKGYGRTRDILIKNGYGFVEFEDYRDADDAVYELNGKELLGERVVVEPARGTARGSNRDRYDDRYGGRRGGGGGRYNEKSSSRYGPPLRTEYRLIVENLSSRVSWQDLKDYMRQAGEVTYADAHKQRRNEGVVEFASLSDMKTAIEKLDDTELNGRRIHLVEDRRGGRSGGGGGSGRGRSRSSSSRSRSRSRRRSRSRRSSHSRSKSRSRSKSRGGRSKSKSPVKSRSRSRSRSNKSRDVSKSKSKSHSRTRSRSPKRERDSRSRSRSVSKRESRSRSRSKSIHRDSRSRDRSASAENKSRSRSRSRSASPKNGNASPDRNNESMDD

B1: RA1-HSF (ssRNA)
RNA: GGGAGAAUUCAACUGCCAUCUAGGCAUCGCGAUACAAAAUUAAGUUGAACGCGAGUUCUCCAUCUAGUACUACAAGCUUCUGGACUCGGU
binding result (HSF (heat shock factor)): binds

B2: aptabody T-S (ssRNA)
RNA: GGGAUCGCCGCCGAGCCCGGGAGCUCGGCGGCCACAGCGGUGGGAGCCCGGGAGCUCCCACCAGCGUUCCCGGAUCCGUGACCGACCAGAAUCAUGCAAGUGCGUAAGAUAGUCGCGGGUCGGGUCAUACUCCCGGCCAGAAUCAUGCAAGUGCGUAAGAUAGUCGCGGGCCGGGAGGCGGAUUC
binding result (Streptavidin [1]): binds

B3: aptabody B-R (ssRNA)
RNA: GGGAUCGCCGCGGCUGGUCAACCAGGCGACCGCCGCGGCCACAGCGGUGGGCUGGUCAACCAGGCGACCGCCCACCAGCGUUCCCGGAUCCGUGACGUCAACACGGUCCCGGACGUGUUGACGUCCAUACUCCUCAACACGGUCCCGGACGUGUUGAGGAGGCGGAUUC
binding result [2]: binds
binding result [3]: binds

GGGACCGACCAGAAUCAUGCAAGUGCGUAAGAUAGUCGCGGGCCGGG (ssRNA) [S1 con]
binding result (Streptavidin [4]): binds

B4: S1 (ssRNA)
RNA: GGGAGUCGACCGACCAGAAUCAUGCAAGUGCGUAAGAUAGUCGCGGGCCGGGGGCGUAUUAUGUGCGUCUACAUCUAGACUCAU
binding result (Streptavidin [5]): binds

B5: AptTBP-101 (ssRNA)
RNA: GGGAGAAUUCAACUGCCAUCUAGGCAGCCAAGGUAAACAAUUCAGUUAGUGGAAUGAAACUGCCCAACACCAGAAGUACUACAAGCUUCUGGACUCGGU
Kd [6]: 2 nM

B6: AptTBP-12 (ssRNA)
RNA: GGGAGAAUUCAACUGCCAUCUAGGCGCCGUGCCCGGUUUGGAUAGGCACAUAAGACGCCGACAAAGAAACCAACCAGUACUACAAGCUUCUGGACUCGGU
Kd [7]: ~2 nM

GGCGCCGUGCCCGGUUUGGAUAGGCACAUAAGACGCC (ssRNA) [m12 (mini AptTBP-12)]
binding result [8]: binds

B7: aptabody B-S (ssRNA)
RNA: GGGAUCGCCGCGGCUGGUCAACCAGGCGACCGCCGCGGCCACAGCGGUGGGCUGGUCAACCAGGCGACCGCCCACCAGCGUUCCCGGAUCCGUGACCGACCAGAAUCAUGCAAGUGCGUAAGAUAGUCGCGGGUCGGGUCAUACUCCCGGCCAGAAUCAUGCAAGUGCGUAAGAUAGUCGCGGGCCGGGAGGCGGAUUC
binding result [9]: binds
binding result (Streptavidin [10]): binds
binding result [11]: binds
